In the supplement of paper PMC9732359:
± gives the uncertainty stated by the source.

assay: protein stability index of a GFP-peptide fusion (yeast GPS) (PSI 1-4); higher = more stable; sorted into four equal gates, so the index is relative within each strain; settings: ubr1∆
Outline: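 Sequencing reads from sorted gates were used to score each peptide. The library consisted of tiled 17-residue yeast protein peptides fused downstream of GFP on a Cherry-expressing plasmid, pooled and carried in yeast. Mid-log cultures in leucine-free medium were split into four equal gates by GFP/Cherry ratio, and each gate's plasmids were PCR-amplified and Illumina-sequenced. The protein stability index adds up, over all gates, the read frequency multiplied by the gate number.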

Sequence | protein stability index
PRFNRDNKVSPAAAAKK [RPS26B] | 2.76 ± 0.12
PSADGADKKDDSESNSE [ITC1] | 2.96 ± 0.068
PSAEIREAYIENFAKGE [SWP82] | 2.4 ± 0.064
PSASLKLHHDLKLCLGD [YMR129W/POM152] | 3.03 ± 0.054
PSDVNIDVMKSQIIPLM [SNU114] | 1.82 ± 0.058
PSENDVFYRMQQLRRAL [RPO31] | 2.14 ± 0.067
PSFGKRHNKSHTLCNRC [RPL37A] | 2.68 ± 0.21
PSGRTRGRSVMKESVVE [ESC2] | 3.67 ± 0.22
PSIIFIDEVDSIATKRF [RPT3] | 3.19 ± 0.068
PSKLVITKLHLDKDRKA [RPL26A] | 1.21 ± 0.099
PSLEKSSFTFGSTTIEK [YLR335W/NUP2] | 2.01 ± 0.056
PSLNPIPHFIDNNSSLN [PRP8] | 2.4 ± 0.045
PSMMAPLRDNGLLDESP [YML031W/NDC1] | 3.35 ± 0.11
PSPISHVAEIRSALEKG [RPB2] | 1.76 ± 0.053
PSPKKVAIDQDKITLHD [SIR4] | 2.88 ± 0.05
PSQGMVVEISNGNTSSK [FAS1] | 3.29 ± 0.056
PSSMATLLKNLRKKLNF [YJR042W/NUP85] | 2.89 ± 0.066
PSTNAQNVNVPSAFNFT [YOR098C/NUP1] | 2.75 ± 0.045
PSYYYYVDPETTYTYQQ [ROX3] | 3.16 ± 0.07
PTGGKAKLSEGTSFRRK [RPS27A] | 3.33 ± 0.059
PTGKEEGDGAKAAISFG [YJL041W/NSP1] | 3.38 ± 0.069
PTLGERLDNLQDIKKAK [DSN1] | 2.86 ± 0.064
PTMYTRLCICSGMLFEM [SIN4] | 1.44 ± 0.033
PTTTTGGLFGNSAQNNS [YGR119C/NUP57] | 3.24 ± 0.054
PVPESAGKADTSIRLEG [SRB4] | 3.06 ± 0.045
PVSLLNSQLVGKPHFSL [PCI8] | 2.21 ± 0.052
PVSPLDIYSDEASAQKK [RPS2] | 3.02 ± 0.06

Sequence | protein stability index
PVVINLDAKNKVFVPPK [RPO31] | 2.95 ± 0.15
PWGDYLQLETPAEVGRA [BRR2] | 1.19 ± 0.049
PYAQKPLQGIFHNAVFN [QCR8] | 2.57 ± 0.038
PYDSNNSNTNLNSLSPQ [SWI1] | 2.79 ± 0.04
PYLLPYILEAEAAAKEK [QCR7] | 1.19 ± 0.053
PYPGSPMHSIMPNSSLQ [DSN1] | 2.83 ± 0.034
PYPKSRYNRAVPDSKIR [RPL10] | 3.04 ± 0.048
QAIAKNNPQVVNAITVA [SNF5] | 1.61 ± 0.036
QAINLGQVVLTPLTFAL [RPL14A] | 1.35 ± 0.067
QAQAQAHAQHQPSQQPQ [GAL11] | 3.028 ± 0.018
QARMMQQQSADHDDSTD [NSL1] | 2.76 ± 0.039
QAVETVGQAGRPKKITG [RPN1] | 2.45 ± 0.056
QDHFHRLNYLYQISAYQ [RPR2] | 2.43 ± 0.026
QDKSKKIMNVTTDSLTK [YMR129W/POM152] | 3.21 ± 0.044
QDNKQLYQIWIVMVWLK [YDL116W/NUP84] | 2.78 ± 0.031
QDRIQDVKLVLASNFDN [MED1] | 2.21 ± 0.036
QDSTSENVKIINYLLTL [RPN2] | 2.9 ± 0.12
QEASQVTFIFGELKRGN [MED11] | 2.6 ± 0.043
QEEEGELEHLTKKSKLE [DSN1] | 3.18 ± 0.043
QELELPGEFVTAIAHSI [SNF5] | 2.4 ± 0.043
QENSSKIITLDLSNYAE [SMC1] | 3.13 ± 0.044
QEPELSLDQGDAEEDSQ [SMC4] | 3.02 ± 0.14
QFLEQGLSIHPTQITQY [SRP68] | 2.17 ± 0.067
QFNEFIQIMANIDQEGS [PGD1] | 2.54 ± 0.049
QFQKARNNVMLLIATNL [SRB8] | 1.93 ± 0.071
QFVPELKEFTAKLRKEL [FAS2] | 1.57 ± 0.026
QGVYGAVYETLISRMIF [BRR2] | 1.67 ± 0.045

Sequence | protein stability index
QHIKVFKLDKDTSNWEL [YGL100W/SEH1] | 3.62 ± 0.29
QHQEEPLLSLDVTPISM [RPN4] | 2.65 ± 0.23
QHYLDTATAPRLFDKLK [QCR6] | 2.76 ± 0.091
QIAFDLVSSASQQLLEI [RPN2] | 1.69 ± 0.072
QIFCVFSGKGVHKLRHY [GRR1] | 2.76 ± 0.053
QIFKVAGENAPSIVFID [RPT2] | 1.33 ± 0.066
QILENYNALFQQNIKFR [YJL039C/NUP192] | 3.04 ± 0.054
QIPTVSSPLGFEETKLS [SIR4] | 2.9 ± 0.081
QIQLAESELSLLEETQA [SMC4] | 3.05 ± 0.052
QIRSADEPMTTFYKCVN [RPC11] | 2.77 ± 0.085
QKCFKLTHRLGGDTCSS [POP1] | 2.51 ± 0.054
QKGITSYAVSPYAQKPL [QCR8] | 3.13 ± 0.089
QKNDTAAFKDIAKRQFK [RRP40] | 3.35 ± 0.058
QKNMNDLLRSQLTSLEK [YIL149C/MLP2] | 2.35 ± 0.05
QKRIENGGNSVITLAEY [SRP68] | 3.22 ± 0.1
QKRNAHGYFLQDKEKID [ITC1] | 3.42 ± 0.056
QLDAYGEKKVGSNGELF [SWP82] | 3.32 ± 0.12
QLDLCKLYFQLFLNTGC [SRP68] | 1.7 ± 0.037
QLDLTGIFLHGKIPTLK [PRP8] | 1.36 ± 0.046
QLIDQFEWDISNSDNCP [SNF5] | 3.27 ± 0.065
QLKAEEKKILNQFLKIK [SMC1] | 2.99 ± 0.078
QLKMVNERELNVFARLS [RPC82] | 2.95 ± 0.12
QLKNGLLEKYNTNELKE [MTR3] | 2.65 ± 0.045
QLLMGDIPELSFFHQSN [RPN3] | 2.62 ± 0.039
QLLNGQKIVVVRAEELN [RPL16A] | 1.21 ± 0.056
QLNLNNLTPANILNMSM [PGD1] | 3.02 ± 0.045
QLTSLEKDCSLRAIEKN [YIL149C/MLP2] | 3.06 ± 0.047

Sequence | protein stability index
QLVLRGLLSQAIGCIER [YJR042W/NUP85] | 2.3 ± 0.076
QLYKRDPVSGAILVPMT [YJR042W/NUP85] | 2.67 ± 0.13
QMIQQRHQQLLRSRLQQ [SNF5] | 3.02 ± 0.12
QNGQQPPTTSNLIIFLY [YML103C/NUP188] | 3.06 ± 0.035
QNIILRSTMMKFLKIAS [RPN3] | 3.03 ± 0.048
QNKEIKAERVEDQKVVD [RPL6A] | 3.35 ± 0.052
QNPLNKSQNTALPSTHK [SIR4] | 2.76 ± 0.037
QNTSNMNAGGLFGAKPQ [YGR119C/NUP57] | 2.17 ± 0.076
QNTVPNVLNQINQIFSP [GAL11] | 2.44 ± 0.032
QNVISLGSLTVEDYLSS [RPC82] | 3 ± 0.074
QPDANKKKRSRTSATRE [ISW2] | 3.16 ± 0.1
QPDENTKEMDEVEEDDE [SWI3] | 3.43 ± 0.054
QPHIFNNPKVKTSKRTK [RPS11A] | 2.36 ± 0.031
QPIVTGTSVISMKYDNG [PRE4] | 2 ± 0.2
QPKDLRAKKTRALRRAL [RPL35A] | 3.1 ± 0.15
QPSDVMFNDLNSMDISM [MED2] | 2.76 ± 0.048
QPTGLLKGLNGFPSAPQ [YMR153W/NUP53] | 3.18 ± 0.1
QPVNINLDSSITQDGKF [YMR129W/POM152] | 3.04 ± 0.059
QQIPLLCYMAPMTVKLV [POP3] | 1.53 ± 0.057
QQLQVLARYLKMDLDNG [FAS2] | 2.31 ± 0.051
QQQLVNQMKVAPIPKQL [GAL11] | 2.63 ± 0.038
QQQQIQVPLQQTQAIAQ [YGR119C/NUP57] | 2.885 ± 0.028
QQQQQQNNSTGSSSIIY [SSN2] | 2.79 ± 0.065
QQQQQQQQPQPQYNMNM [PGD1] | 2.81 ± 0.16
